As usually defined, the Kd is the equilibrium constant for the complex coming apart. Usually stoichiometry N stands for a count of units in the complex or per binding partner.

This passage reports Kd and stoichiometry N results from PMC10553838, “Functional and structural insights into the multi-step activation and catalytic mechanism of bacterial ExoY nucleotidyl cyclase toxins bound to actin-profilin” (PLOS Pathogens, 2023).

For test [1], the target named is Alexa-488-labelled G-actin-ATP (rabbit) (UniProt P68135). Briefly: AUC.
Test [2] deals with α-actin from rabbit skeletal muscle, monomeric (G-actin) (rabbit) (UniProt P68135). Kind of test: pyrene-actin seeded elongation rates with profilin, fitted with G-actin sequestration by Vn-ExoY.
Test [3] has the same target. Briefly: pyrene-actin seeded elongation rates fitted to a G-actin sequestration model; initial barbed-end (spectrin-actin seeds) and pointed-end (gelsolin-actin seeds) growth rates, 1.5 μM G-actin-ATP-Mg, increasing Vn-ExoY^DM; 28 mM KCl, 2 mM MgCl2, 10 mM Tris-HCl pH 7.5, 2 mM ATP, 1 mM DTT; 25°C; KD from the fit of Eq 1 and 2.

For the substance “Trx-Vn-ExoY (Vn-ExoY fused to Thioredoxin) (domain or fragment)”, in test [1], the Kd worked out at 11.7 µM and the stoichiometry N was 1.
“Vn-ExoY^3412-3873 (wild type) (domain or fragment)”: in test [2], the Kd was in the range of 12 to 14 µM.
“Vn-ExoY^DM (Vn-ExoY^412-873 K528M/K535I, inactive double mutant) (domain or fragment)”: in test [3], the Kd is 21 µM and the stoichiometry N was determined as 1.
